# From paper PMC6855462
# Biological target: FL H1#5070 (full-length HA of H1 A/Brisbane/59/2007, C-terminally modified with a sortase A LPXTG recognition sequence, biotinylated HA probe) (influenza A virus H1 A/Brisbane/59/2007)
# Test: SEC-MALS; Superdex 200 10-300 GL column, after sortase-mediated biotinylation; trimeric fractions collected; stored in 20mM Tris, 150mM NaCl, pH7.8
substance,measurement,value
"FL H1#5070 (full-length HA of H1 A/Brisbane/59/2007, C-terminally modified with a sortase A LPXTG recognition sequence, biotinylated HA probe) (natural protein)",stoichiometry N,3
